According to paper doi:10.1101/2020.12.18.423415 (bioRxiv, 2020):

Target: receptor binding domain (RBD) of the SARS-CoV-2 S protein (SARS-CoV-2, UniProt P0DTC2)
Assay: ELISA

B1: recombinant fragment of human surfactant protein D (rfhSP-D) (domain or fragment)
chain: PGLKGDKGIPGDKGAKGESGLPDVASLRQQVEALQGQVQHLQAAFSQYKKVELFPNGQSVGEKIFKTAGFVKPFTEAQLLCTQAGGQLASPRSAAENAALQQLVVAKNEAAFLSMTDSKTEGKFTYPTGESLVYSNWAPGEPNDDGGSEDCVEIFTNGKWNDRACGEKRLVVCEF
B1 was tested, and the “percent decrease of RBD-hACE-2 interaction (rfhSP-D increased 8-fold)” value was about 25%.
